*1 amine or outer side, *2 acyl side, *3 side chain or, on linkers, in order; H or OH if unused. Where a SMILES comes first, the peptide text is derived from it. The star is where a group is joined. Fluorescein(5-Mal) = O=C1OC2(c3ccc(O)cc3Oc3cc(O)ccc32)c2ccc(N3C(=O)CC(*)C3=O)cc21; X1 = N#C[C@@H]1CC(F)(F)CN1C(=O)CNC(=O)c1ccnc2c(N*)cccc12; Suc = O=C(CCC(=O)[*:2])[*:1]
Legend:
in vivo = assay: in vivo; set-up: species or system mice; conditions: mouse; for tissue to tissue ratio at 1 h / tissue to tissue ratio at 4 h / tissue to tissue ratio at 17 h / tissue to tissue ratio at 24 h: female, athymic BALB/C nu/nu, iv, 250 nmol/kg, total radioactivity
Description: Upon thawing, HT-1080.hFAP positive cells and HT-1080.wt cells were kept in culture in DMEM medium supplemented with fetal bovine serum (10%, FBS) and Antibiotic-Antimycotic (1%, AA) at 37° C. and 5% CO2. For passaging, cells were detached using Trypsin-EDTA 0.05% when reaching 90% confluence and re-seeded at a dilution of 1:4. Cells were grown to 80% confluence and detached with Trypsin-EDTA 0.05%. Cells were re-suspended in cold HBSS medium to a final concentration of 5×10^7 cells/mL. Aliquots of 5×10^6 cells (100 μL of suspension) were injected subcutaneously in the flank of female athymic BALB/C nu/nu mice (6-8 weeks of age). HT-1080.hFAP tumour cells were xenografted in the right flank and HT-1080.wt tumour cells were xenografted in the left flank as described above and allowed to grow to an average volume of 1.2±0.2 mL. […] Mice were sacrificed 1 h, 4 h, 17 h and 24 h after the injection by CO2 asphyxiation and organs extracted, weighted and radioactivity measured with a Packard Cobra γ-counter. Values are expressed as % ID/g±SD (Figure C). Food and water were given ad libitum during that period.

hFAP [1] = target: T1, hFAP (Homo sapiens, UniProt Q12884); assay: Gel filtration co-elution experiment on hFAP; assay type: binding; conditions: PD-10 column, hFAP 2 μM
T1 sequence (Q12884 1-760): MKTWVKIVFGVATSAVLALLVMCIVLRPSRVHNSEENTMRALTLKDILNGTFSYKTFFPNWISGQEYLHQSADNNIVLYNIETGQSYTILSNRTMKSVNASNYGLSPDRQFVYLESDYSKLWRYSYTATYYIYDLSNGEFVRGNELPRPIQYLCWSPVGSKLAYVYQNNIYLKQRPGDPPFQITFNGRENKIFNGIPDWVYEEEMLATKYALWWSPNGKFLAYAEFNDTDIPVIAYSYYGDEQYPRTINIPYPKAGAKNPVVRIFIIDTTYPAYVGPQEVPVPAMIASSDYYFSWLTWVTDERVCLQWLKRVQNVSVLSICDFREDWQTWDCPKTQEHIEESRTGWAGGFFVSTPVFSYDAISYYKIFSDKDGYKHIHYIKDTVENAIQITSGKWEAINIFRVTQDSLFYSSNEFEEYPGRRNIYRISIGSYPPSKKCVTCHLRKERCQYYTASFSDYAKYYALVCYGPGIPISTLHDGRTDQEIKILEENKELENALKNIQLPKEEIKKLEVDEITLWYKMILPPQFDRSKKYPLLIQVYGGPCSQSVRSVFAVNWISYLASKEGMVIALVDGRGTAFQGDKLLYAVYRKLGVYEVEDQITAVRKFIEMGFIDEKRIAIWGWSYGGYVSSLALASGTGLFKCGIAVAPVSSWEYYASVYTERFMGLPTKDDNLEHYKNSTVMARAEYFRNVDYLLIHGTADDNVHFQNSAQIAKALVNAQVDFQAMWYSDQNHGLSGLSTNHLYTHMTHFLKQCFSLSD
Description: The final solution was loaded on the column and flushed with running buffer. Fractions of the flow-through (200 μL) were collected in test tubes and the radioactivity measured with a Packard Cobra γ-counter. […] The final solution was loaded on the column and flushed with running buffer. Fractions of the flow-through (200 μL) were collected in test tubes and the radioactivity measured with a Packard Cobra γ-counter.

hFAP [2] = target: T1, hFAP; assay: ELISA against immobilized hFAP; assay type: binding; conditions: biotinylated hFAP immobilized on StreptaWell
Description: Recombinant human FAP (1 μM, 5 mL) was biotinylated with Biotin-LC-NHS (100 eq.) by incubation at room temperature under gentle agitation in 50 mM HEPES, 100 mM NaCl buffer (pH=7.4). After 2 hours biotinylated hFAP was purified via PD-10 column and dialyzed overnight in HEPES buffer. The following day a StreptaWell™ (transparent 96-well) was incubated with biotinylated hFAP (100 nM, 100 μL/well) for 1 hour at room temperature and washed with PBS (3×, 200 μL/well). The protein was blocked by adding 4% Milk in PBS (200 μL/well, 30 min at RT) and then washed with PBS (3×, 200 μL/well). Immobilized hFAP was incubated for 30 minutes in the dark with serial dilutions of ESV6-Asp-Lys-Asp-Cys-Fluorescein and Bi-ESV6-Asp-Lys-Asp-Cys-Fluorescein (17), then washed with PBS (3×, 200 μL/well). A solution of rabbit αFITC antibody (1 μg/mL, Bio-Rad 4510-7804) in 2% Milk-PBS was added to each well (100 μL/well) and incubated for additional 30 minutes in the dark. The resulting complex was washed with PBS (3×, 200 μL/well) and incubated for additional 30 minutes of protein A-HRP (1 μg/mL in 2% Milk-PBS, 100 μL/well). Each well was washed with PBS 0.1% Tween (3×, 200 μL/well) and with PBS (3×, 200 μL/well). The substrate (TMB—3,3′,5,5′-Tetramethylbenzidine) was added (100 μL/well) and developed in the dark for 2 minutes. […] The absorbance was measured at 450 nm (ref 620-650 nm) with a TECAN spark

[3] = Tumour-to-organ ratios: HT-1080.hFAP
[4] = Tumour-to-organ ratios: Intestine

| SMILES | tissue to tissue ratio at 1 h (in vivo; Tumour-to-organ ratios: Blood) | tissue to tissue ratio at 4 h (in vivo; Tumour-to-organ ratios: Blood) | tissue to tissue ratio at 17 h (in vivo; Tumour-to-organ ratios: Blood) | tissue to tissue ratio at 24 h (in vivo; Tumour-to-organ ratios: Blood) | tissue to tissue ratio at 1 h (in vivo; [3]) | tissue to tissue ratio at 4 h (in vivo; [3]) | tissue to tissue ratio at 17 h (in vivo; [3]) | tissue to tissue ratio at 24 h (in vivo; [3]) | tissue to tissue ratio at 1 h (in vivo; Tumour-to-organ ratios: Heart) | tissue to tissue ratio at 4 h (in vivo; Tumour-to-organ ratios: Heart) | tissue to tissue ratio at 17 h (in vivo; Tumour-to-organ ratios: Heart) | tissue to tissue ratio at 24 h (in vivo; Tumour-to-organ ratios: Heart) | tissue to tissue ratio at 1 h (in vivo; [4]) | tissue to tissue ratio at 4 h (in vivo; [4]) | tissue to tissue ratio at 17 h (in vivo; [4]) | tissue to tissue ratio at 24 h (in vivo; [4]) | tissue to tissue ratio at 1 h (in vivo; Tumour-to-organ ratios: Kidney) | tissue to tissue ratio at 4 h (in vivo; Tumour-to-organ ratios: Kidney) | tissue to tissue ratio at 17 h (in vivo; Tumour-to-organ ratios: Kidney) | tissue to tissue ratio at 24 h (in vivo; Tumour-to-organ ratios: Kidney) | further results |
| --- | --- | --- | --- | --- | --- | --- | --- | --- | --- | --- | --- | --- | --- | --- | --- | --- | --- | --- | --- | --- | --- |
| N#C[C@@H]1CC(F)(F)CN1C(=O)CNC(=O)c1ccnc2c(NC(=O)CCC(=O)NCCNC(=O)CCC(C(=O)O)N3CCN(CC(=O)O)CCN(CC(=O)O)CCN(CC(=O)O)CC3)cccc12 (single isomer, unassigned) [^177Lu-ESV6-DOTAGA, metal not drawn] | 43.1 ± 17.2 | 113 ± 49.8 | 236 ± 190 | 855 ± 368 | 34.9 ± 2.79 | 26.8 ± 6.42 | 32.6 ± 17.4 | 13.3 ± 5.95 | 135 ± 19.8 | 208 ± 113 | 354 ± 231 | 169 ± 172 | 41 ± 41.8 | 39.8 ± 11.4 | 163 ± 94.9 | 77 ± 58.6 | 9.16 ± 0.88 | 8.25 ± 1.45 | 5.72 ± 2.04 | 11.9 ± 16 | tissue to tissue ratio at 1 h (in vivo; Tumour-to-organ ratios: Liver): 5.89 ± 0.82; tissue to tissue ratio at 4 h (in vivo; Tumour-to-organ ratios: Liver): 21.6 ± 2.99; tissue to tissue ratio at 17 h (in vivo; Tumour-to-organ ratios: Liver): 40.3 ± 13.3; tissue to tissue ratio at 24 h (in vivo; Tumour-to-organ ratios: Liver): 30.4 ± 6.7; tissue to tissue ratio at 1 h (in vivo; Tumour-to-organ ratios: Lung): 37.9 ± 2.59; tissue to tissue ratio at 4 h (in vivo; Tumour-to-organ ratios: Lung): 90.3 ± 29.3; tissue to tissue ratio at 17 h (in vivo; Tumour-to-organ ratios: Lung): 150 ± 88.5; tissue to tissue ratio at 24 h (in vivo; Tumour-to-organ ratios: Lung): 140 ± 83; tissue to tissue ratio at 1 h (in vivo; Tumour-to-organ ratios: Spleen): 109 ± 8.98; tissue to tissue ratio at 4 h (in vivo; Tumour-to-organ ratios: Spleen): 169 ± 67.8; tissue to tissue ratio at 17 h (in vivo; Tumour-to-organ ratios: Spleen): 200 ± 45.7; tissue to tissue ratio at 24 h (in vivo; Tumour-to-organ ratios: Spleen): 103 ± 66.7; tissue to tissue ratio at 1 h (in vivo; Tumour-to-organ ratios: Tail): 31.2 ± 8.39; tissue to tissue ratio at 4 h (in vivo; Tumour-to-organ ratios: Tail): 10.4 ± 7.6; tissue to tissue ratio at 17 h (in vivo; Tumour-to-organ ratios: Tail): 4.74 ± 5.11; tissue to tissue ratio at 24 h (in vivo; Tumour-to-organ ratios: Tail): 8.77 ± 2.3; Complex formation with hFAP (co-elution) (hFAP [1]): form a stable complex |
| N#C[C@@H]1CC(F)(F)CN1C(=O)CNC(=O)c1ccnc2c(NC(=O)CCC(=O)N[C@@H](CC(=O)O)C(=O)N[C@@H](CCCCN)C(=O)N[C@@H](CC(=O)O)C(=O)N[C@@H](CSC3CC(=O)N(c4ccc5c(c4)C(=O)OC54c5ccc(O)cc5Oc5cc(O)ccc54)C3=O)C(=O)O)cccc12 (stereo partly drawn) [ESV6-Asp-Lys-Asp-Cys-Fluorescein] ({X1-Suc}-DKDC(Fluorescein(5-Mal))-OH) |  |  |  |  |  |  |  |  |  |  |  |  |  |  |  |  |  |  |  |  | Kd (hFAP [2]): 32.3 nM |
| N#C[C@@H]1CC(F)(F)CN1C(=O)CNC(=O)c1ccnc2c(NC(=O)CCC(=O)NCCCC[C@H](NC(=O)CCC(=O)Nc3cccc4c(C(=O)NCC(=O)N5CC(F)(F)C[C@H]5C#N)ccnc34)C(=O)NCCNC(=O)CCC(C(=O)O)N3CCN(CC(=O)O)CCN(CC(=O)O)CCN(CC(=O)O)CC3)cccc12 (stereo partly shown) [^177Lu-Bi-ESV6-DOTAGA, metal not drawn] | 32.8 ± 8.97 | 62.8 ± 11.2 | 95.4 ± 19.1 | 178 ± 57.6 | 23 ± 8.09 | 25 ± 1.27 | 27.2 ± 11.3 | 29.7 ± 13.8 | 52.2 ± 10.8 | 125 ± 17.1 | 148 ± 12.9 | 201 ± 59.5 | 59.6 ± 6.48 | 82.4 ± 31.2 | 111 ± 32.1 | 104 ± 60.6 | 7.19 ± 2.29 | 8.61 ± 0.84 | 8.4 ± 1.31 | 9.9 ± 2.38 | tissue to tissue ratio at 1 h (in vivo; Tumour-to-organ ratios: Liver): 18.8 ± 5.31; tissue to tissue ratio at 4 h (in vivo; Tumour-to-organ ratios: Liver): 29.9 ± 4.12; tissue to tissue ratio at 17 h (in vivo; Tumour-to-organ ratios: Liver): 27.9 ± 2.25; tissue to tissue ratio at 24 h (in vivo; Tumour-to-organ ratios: Liver): 30.6 ± 8; tissue to tissue ratio at 1 h (in vivo; Tumour-to-organ ratios: Lung): 19.5 ± 4.09; tissue to tissue ratio at 4 h (in vivo; Tumour-to-organ ratios: Lung): 65.5 ± 10.5; tissue to tissue ratio at 17 h (in vivo; Tumour-to-organ ratios: Lung): 124 ± 74.7; tissue to tissue ratio at 24 h (in vivo; Tumour-to-organ ratios: Lung): 98.7 ± 18.9; tissue to tissue ratio at 1 h (in vivo; Tumour-to-organ ratios: Spleen): 42.1 ± 17.7; tissue to tissue ratio at 4 h (in vivo; Tumour-to-organ ratios: Spleen): 73.8 ± 10.3; tissue to tissue ratio at 17 h (in vivo; Tumour-to-organ ratios: Spleen): 68.2 ± 11.7; tissue to tissue ratio at 24 h (in vivo; Tumour-to-organ ratios: Spleen): 93.6 ± 64.5; tissue to tissue ratio at 1 h (in vivo; Tumour-to-organ ratios: Tail): 10.4 ± 1.72; tissue to tissue ratio at 4 h (in vivo; Tumour-to-organ ratios: Tail): 9.68 ± 4.14; tissue to tissue ratio at 17 h (in vivo; Tumour-to-organ ratios: Tail): 14 ± 8.08; tissue to tissue ratio at 24 h (in vivo; Tumour-to-organ ratios: Tail): 15.5 ± 7.98; Kidney uptake (in vivo): transient and becomes negligible 24 hours after injection; Complex formation with hFAP (co-elution) (hFAP [1]): form a stable complex |

— patent US20240148916A1, “BIVALENT FIBROBLAST ACTIVATION PROTEIN LIGANDS FOR TARGETED DELIVERY APPLICATIONS” (priority 2021, published 2024)
